Laboratory results from IntAct's records for PubMed 25910212.

B1: Adenosylhomocysteinase (Homo sapiens), P23526 (parent)
chain: MSDKLPYKVADIGLAAWGRKALDIAENEMPGLMRMRERYSASKPLKGARIAGCLHMTVETAVLIETLVTLGAEVQWSSCNIFSTQDHAAAAIAKAGIPVYAWKGETDEEYLWCIEQTLYFKDGPLNMILDDGGDLTNLIHTKYPQLLPGIRGISEETTTGVHNLYKMMANGILKVPAINVNDSVTKSKFDNLYGCRESLIDGIKRATDVMIAGKVAVVAGYGDVGKGCAQALRGFGARVIITEIDPINALQAAMEGYEVTTMDEACQEGNIFVTTTGCIDIILGRHFEQMKDDAIVCNIGHFDVEIDVKWLNENAVEKVNIKPQVDRYRLKNGRRIILLAEGRLVNLGCAMGHPSFVMSNSFTNQVMAQIELWTHPDKYPVGVHFLPKKLDEAVAEAHLGKLNVKLTKLTEKQAQYLGMSCDGPFKPDHYRY
partner: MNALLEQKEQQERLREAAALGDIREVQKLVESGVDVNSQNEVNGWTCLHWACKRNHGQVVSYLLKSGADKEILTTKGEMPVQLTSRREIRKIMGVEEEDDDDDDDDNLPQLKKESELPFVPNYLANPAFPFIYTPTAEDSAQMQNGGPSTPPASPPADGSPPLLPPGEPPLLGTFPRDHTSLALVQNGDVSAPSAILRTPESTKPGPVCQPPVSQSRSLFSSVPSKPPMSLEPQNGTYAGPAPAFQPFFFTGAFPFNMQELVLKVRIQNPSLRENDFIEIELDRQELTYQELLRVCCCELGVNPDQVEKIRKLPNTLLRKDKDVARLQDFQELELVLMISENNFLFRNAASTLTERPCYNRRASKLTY
B2: ATP synthase mitochondrial F1 complex assembly factor 2 (Homo sapiens), Q8N5M1 (parent)
chain: MWRSCLRLRDGGRRLLNRPAGGPSASMSPGPTIPSPARAYAPPTERKRFYQNVSITQGEGGFEINLDHRKLKTPQAKLFTVPSEALAIAVATEWDSQQDTIKYYTMHLTTLCNTSLDNPTQRNKDQLIRAAVKFLDTDTICYRVEEPETLVELQRNEWDPIIEWAEKRYGVEISSSTSIMGPSIPAKTREVLVSHLASYNTWALQGIEFVAAQLKSMVLTLGLIDLRLTVEQAVLLSRLEEEYQIQKWGNIEWAHDYELQELRARTAAGTLFIHLCSESTTVKHKLLKE
partner: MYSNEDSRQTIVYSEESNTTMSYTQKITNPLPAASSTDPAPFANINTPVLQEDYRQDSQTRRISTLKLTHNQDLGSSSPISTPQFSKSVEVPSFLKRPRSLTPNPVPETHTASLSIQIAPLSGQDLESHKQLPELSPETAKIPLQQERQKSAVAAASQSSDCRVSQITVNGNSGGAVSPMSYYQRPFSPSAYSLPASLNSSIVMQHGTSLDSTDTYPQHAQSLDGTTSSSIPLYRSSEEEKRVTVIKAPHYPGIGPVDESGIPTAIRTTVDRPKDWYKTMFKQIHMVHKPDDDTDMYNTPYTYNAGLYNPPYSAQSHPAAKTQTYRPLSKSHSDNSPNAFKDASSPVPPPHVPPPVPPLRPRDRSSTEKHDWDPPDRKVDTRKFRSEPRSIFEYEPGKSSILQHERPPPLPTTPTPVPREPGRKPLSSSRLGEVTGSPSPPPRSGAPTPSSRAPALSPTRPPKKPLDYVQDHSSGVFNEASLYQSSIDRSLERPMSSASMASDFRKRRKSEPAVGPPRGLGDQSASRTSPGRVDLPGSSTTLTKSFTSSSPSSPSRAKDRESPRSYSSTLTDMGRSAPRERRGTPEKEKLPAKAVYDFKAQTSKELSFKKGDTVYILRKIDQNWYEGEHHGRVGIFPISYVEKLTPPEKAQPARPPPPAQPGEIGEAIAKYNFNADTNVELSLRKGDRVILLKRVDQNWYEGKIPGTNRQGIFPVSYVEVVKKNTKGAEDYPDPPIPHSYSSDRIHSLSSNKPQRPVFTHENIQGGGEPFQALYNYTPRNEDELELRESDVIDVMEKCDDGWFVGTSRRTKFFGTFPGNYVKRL
B3: Sulfotransferase 2B1 (Homo sapiens), O00204 (parent)
chain: MDGPAEPQIPGLWDTYEDDISEISQKLPGEYFRYKGVPFPVGLYSLESISLAENTQDVRDDDIFIITYPKSGTTWMIEIICLILKEGDPSWIRSVPIWERAPWCETIVGAFSLPDQYSPRLMSSHLPIQIFTKAFFSSKAKVIYMGRNPRDVVVSLYHYSKIAGQLKDPGTPDQFLRDFLKGEVQFGSWFDHIKGWLRMKGKDNFLFITYEELQQDLQGSVERICGFLGRPLGKEALGSVVAHSTFSAMKANTMSNYTLLPPSLLDHRRGAFLRKGVCGDWKNHFTVAQSEAFDRAYRKQMRGMPTFPWDEDPEEDGSPDPEPSPEPEPKPSLEPNTSLEREPRPNSSPSPSPGQASETPHPRPS
partner: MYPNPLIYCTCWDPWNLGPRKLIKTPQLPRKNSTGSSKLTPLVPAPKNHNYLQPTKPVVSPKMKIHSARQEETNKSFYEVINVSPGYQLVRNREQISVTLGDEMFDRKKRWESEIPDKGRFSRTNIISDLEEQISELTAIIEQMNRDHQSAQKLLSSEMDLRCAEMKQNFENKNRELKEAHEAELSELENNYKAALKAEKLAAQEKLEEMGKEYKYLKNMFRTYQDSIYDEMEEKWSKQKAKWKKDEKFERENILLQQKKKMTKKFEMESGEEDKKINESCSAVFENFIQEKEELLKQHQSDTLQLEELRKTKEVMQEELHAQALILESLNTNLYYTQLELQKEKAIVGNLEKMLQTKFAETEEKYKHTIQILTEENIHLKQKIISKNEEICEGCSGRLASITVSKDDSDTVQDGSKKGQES
B4: Sulfotransferase 2B1 (Homo sapiens), O00204 (parent)
chain: B3 chain
B5: Ketohexokinase (Homo sapiens), P50053-2 (parent)
chain: MEEKQILCVGLVVLDVISLVDKYPKEDSEIRCLSQRWQRGGNASNSCTVLSLLGAPCAFMGSMAPGHVADFVLDDLRRYSVDLRYTVFQTTGSVPIATVIINEASGSRTILYYDRSLPDVSATDFEKVDLTQFKWIHIEGRNASEQVKMLQRIDAHNTRQPPEQKIRVSVEVEKPREELFQLFGYGDVVFVSKDVAKHLGFQSAEEALRGLYGRVRKGAVLVCAWAEEGADALGPDGKLLHSDAFPPPRVVDTLGAGDTFNASVIFSLSQGRSVQEALRFGCQVAGKKCGLQGFDGIV
partner: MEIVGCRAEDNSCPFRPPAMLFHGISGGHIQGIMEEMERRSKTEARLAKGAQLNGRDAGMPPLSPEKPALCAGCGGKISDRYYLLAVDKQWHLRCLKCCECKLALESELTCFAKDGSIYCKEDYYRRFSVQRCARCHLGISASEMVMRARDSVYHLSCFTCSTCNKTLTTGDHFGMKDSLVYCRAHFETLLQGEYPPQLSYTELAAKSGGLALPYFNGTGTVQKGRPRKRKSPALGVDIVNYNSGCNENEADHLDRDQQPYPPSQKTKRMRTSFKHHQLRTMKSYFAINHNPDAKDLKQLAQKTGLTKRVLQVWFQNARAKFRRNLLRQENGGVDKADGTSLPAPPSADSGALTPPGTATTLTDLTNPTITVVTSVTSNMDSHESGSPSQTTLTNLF

Variants of: B1
Settings: with anr40_human ANKRD40, Q6AI12

effect of a mutation on the interaction | Variant
with no effect | D86G
with no effect | Y143C

Variants of: B2
Settings: with SORBS2, O94875-10

effect of a mutation on the interaction | Variant
disrupting interaction strength | W94R

Variants of: B3
Settings: with FLACC1, Q96Q35-2

effect of a mutation on the interaction | Variant
with no effect | D191N
with no effect | R230H

Variants of: B4
Settings: with st1b1_human SULT1B1, O43704
st1b1_human SULT1B1, O43704, sequence (O43704 whole entry): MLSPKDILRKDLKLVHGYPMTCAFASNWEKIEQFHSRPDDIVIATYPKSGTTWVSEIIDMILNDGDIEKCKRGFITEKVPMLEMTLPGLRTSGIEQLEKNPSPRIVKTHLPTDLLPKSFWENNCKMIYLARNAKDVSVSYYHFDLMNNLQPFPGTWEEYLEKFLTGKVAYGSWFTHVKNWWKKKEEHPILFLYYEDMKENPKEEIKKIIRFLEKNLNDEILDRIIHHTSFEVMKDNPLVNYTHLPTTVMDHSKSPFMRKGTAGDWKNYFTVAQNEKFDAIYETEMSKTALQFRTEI

effect of a mutation on the interaction | Variant
with no effect | R230H
with no effect | D191N

Variants of: B4
Settings: with st1a1_human SULT1A1, P50225
st1a1_human SULT1A1, P50225, sequence (P50225 whole entry, looked up): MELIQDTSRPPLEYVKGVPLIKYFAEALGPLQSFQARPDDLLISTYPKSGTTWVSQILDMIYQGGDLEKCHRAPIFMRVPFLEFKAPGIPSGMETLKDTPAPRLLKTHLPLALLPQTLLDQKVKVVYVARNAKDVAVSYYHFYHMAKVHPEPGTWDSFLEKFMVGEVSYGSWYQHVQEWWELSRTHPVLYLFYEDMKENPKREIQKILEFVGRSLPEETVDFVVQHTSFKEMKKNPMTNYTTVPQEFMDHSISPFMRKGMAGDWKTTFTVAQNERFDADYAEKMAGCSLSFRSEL

effect of a mutation on the interaction | Variant
with no effect | R230H
with no effect | D191N

Variants of: B5
Settings: with lhx9_human LHX9, Q9NQ69

effect of a mutation on the interaction | Variant
with no effect | A43T
